Laboratory results taken from the supplement of paper PMC10567573.

B1: CCND1 (parent)
chain: IRRAYPDANLLNDRVLRAMLKAEE

Variants of: B1
Assay: protein stability index of a GFP-peptide fusion (GPS, HEK-293T) (PSI 1-6); higher = more stable
Conditions: c terminus: a fixed tail appended
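Note: lentivirally expressed fusions sorted by FACS into six bins by GFP to DsRed ratio, PSI derived from sequencing read proportions per bin multiplied by bin number.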

Compared with IRRKYPDANLLNDRVLRAMLKAEE [A4K], IRRLYPDANLLNDRVLRAMLKAEE [A4L] is lower in protein stability index: 2.3 for the first, 1.84 for the second.

Going from IRRMYPDANLLNDRVLRAMLKAEE [A4M] to IRRNYPDANLLNDRVLRAMLKAEE [A4N], the protein stability index rises from 2.58 to 2.59.

Going from IRRPYPDANLLNDRVLRAMLKAEE [A4P] to IRRQYPDANLLNDRVLRAMLKAEE [A4Q], the protein stability index falls from 3.12 to 2.37.

First: IRRRYPDANLLNDRVLRAMLKAEE [A4R]
Second: IRRTYPDANLLNDRVLRAMLKAEE [A4T]
The protein stability index of the first is higher: 2.37 for the first, 2.12 for the second.

Compared with IRRVYPDANLLNDRVLRAMLKAEE [A4V], IRRWYPDANLLNDRVLRAMLKAEE [A4W] is higher in protein stability index: 1.79 for the first, 3.03 for the second.

Compared with IRRYYPDANLLNDRVLRAMLKAEE [A4Y], IRRAAPDANLLNDRVLRAMLKAEE [Y5A] is higher in protein stability index: 2.68 for the first, 3.33 for the second.

First: IRRACPDANLLNDRVLRAMLKAEE [Y5C]
Second: IRRADPDANLLNDRVLRAMLKAEE [Y5D]
The protein stability index of the first is higher: 2.9 for the first, 1.54 for the second.

Going from IRRAEPDANLLNDRVLRAMLKAEE [Y5E] to IRRAGPDANLLNDRVLRAMLKAEE [Y5G], the protein stability index falls from 2.51 to 2.14.

Compared with IRRAHPDANLLNDRVLRAMLKAEE [Y5H], IRRAKPDANLLNDRVLRAMLKAEE [Y5K] is higher in protein stability index: 2.02 for the first, 3.3 for the second.

Going from IRRALPDANLLNDRVLRAMLKAEE [Y5L] to IRRANPDANLLNDRVLRAMLKAEE [Y5N], the protein stability index falls from 3.07 to 2.43.

Going from IRRAPPDANLLNDRVLRAMLKAEE [Y5P] to IRRARPDANLLNDRVLRAMLKAEE [Y5R], the protein stability index falls from 3.69 to 2.53.

Compared with IRRATPDANLLNDRVLRAMLKAEE [Y5T], IRRAWPDANLLNDRVLRAMLKAEE [Y5W] is lower in protein stability index: 3.49 for the first, 2.13 for the second.

Compared with IRRAYADANLLNDRVLRAMLKAEE [P6A], IRRAYDDANLLNDRVLRAMLKAEE [P6D] is lower in protein stability index: 1.75 for the first, 1.43 for the second.

First: IRRAYEDANLLNDRVLRAMLKAEE [P6E]
Second: IRRAYFDANLLNDRVLRAMLKAEE [P6F]
The protein stability index of the first is lower: 2.14 for the first, 2.4 for the second.

Going from IRRAYGDANLLNDRVLRAMLKAEE [P6G] to IRRAYIDANLLNDRVLRAMLKAEE [P6I], the protein stability index rises from 2.13 to 2.21.

Compared with IRRAYLDANLLNDRVLRAMLKAEE [P6L], IRRAYMDANLLNDRVLRAMLKAEE [P6M] is higher in protein stability index: 2.42 for the first, 2.99 for the second.

Going from IRRAYRDANLLNDRVLRAMLKAEE [P6R] to IRRAYSDANLLNDRVLRAMLKAEE [P6S], the protein stability index rises from 2.35 to 3.19.

Going from IRRAYTDANLLNDRVLRAMLKAEE [P6T] to IRRAYVDANLLNDRVLRAMLKAEE [P6V], the protein stability index rises from 1.88 to 3.38.

Compared with IRRAYYDANLLNDRVLRAMLKAEE [P6Y], IRRAYPAANLLNDRVLRAMLKAEE [D7A] is higher in protein stability index: 1.63 for the first, 1.83 for the second.

First: IRRAYPEANLLNDRVLRAMLKAEE [D7E]
Second: IRRAYPFANLLNDRVLRAMLKAEE [D7F]
The protein stability index of the first is higher: 2.06 for the first, 1.65 for the second.

Compared with IRRAYPHANLLNDRVLRAMLKAEE [D7H], IRRAYPKANLLNDRVLRAMLKAEE [D7K] is lower in protein stability index: 2.14 for the first, 2.1 for the second.

Going from IRRAYPLANLLNDRVLRAMLKAEE [D7L] to IRRAYPNANLLNDRVLRAMLKAEE [D7N], the protein stability index rises from 1.84 to 3.11.

Compared with IRRAYPPANLLNDRVLRAMLKAEE [D7P], IRRAYPSANLLNDRVLRAMLKAEE [D7S] is higher in protein stability index: 2.09 for the first, 2.43 for the second.

Compared with IRRAYPTANLLNDRVLRAMLKAEE [D7T], IRRAYPWANLLNDRVLRAMLKAEE [D7W] is higher in protein stability index: 2.23 for the first, 2.36 for the second.

Compared with IRRAYPYANLLNDRVLRAMLKAEE [D7Y], IRRAYPDCNLLNDRVLRAMLKAEE [A8C] is higher in protein stability index: 2.13 for the first, 2.78 for the second.

Going from IRRAYPDFNLLNDRVLRAMLKAEE [A8F] to IRRAYPDHNLLNDRVLRAMLKAEE [A8H], the protein stability index falls from 2.54 to 2.28.

Going from IRRAYPDINLLNDRVLRAMLKAEE [A8I] to IRRAYPDKNLLNDRVLRAMLKAEE [A8K], the protein stability index rises from 2.02 to 2.53.

First: IRRAYPDLNLLNDRVLRAMLKAEE [A8L]
Second: IRRAYPDMNLLNDRVLRAMLKAEE [A8M]
The protein stability index of the first is lower: 2.04 for the first, 2.85 for the second.

Compared with IRRAYPDNNLLNDRVLRAMLKAEE [A8N], IRRAYPDPNLLNDRVLRAMLKAEE [A8P] is lower in protein stability index: 3.46 for the first, 3.03 for the second.

Going from IRRAYPDRNLLNDRVLRAMLKAEE [A8R] to IRRAYPDSNLLNDRVLRAMLKAEE [A8S], the protein stability index falls from 3.16 to 2.81.

First: IRRAYPDTNLLNDRVLRAMLKAEE [A8T]
Second: IRRAYPDVNLLNDRVLRAMLKAEE [A8V]
The protein stability index of the first is lower: 2.61 for the first, 3.02 for the second.

First: IRRAYPDYNLLNDRVLRAMLKAEE [A8Y]
Second: IRRAYPDAALLNDRVLRAMLKAEE [N9A]
The protein stability index of the first is higher: 2.4 for the first, 2.34 for the second.

Going from IRRAYPDADLLNDRVLRAMLKAEE [N9D] to IRRAYPDAELLNDRVLRAMLKAEE [N9E], the protein stability index rises from 2.3 to 3.04.

Compared with IRRAYPDAFLLNDRVLRAMLKAEE [N9F], IRRAYPDAGLLNDRVLRAMLKAEE [N9G] is higher in protein stability index: 1.71 for the first, 2.34 for the second.

Going from IRRAYPDAILLNDRVLRAMLKAEE [N9I] to IRRAYPDARLLNDRVLRAMLKAEE [N9R], the protein stability index falls from 2.36 to 2.06.

Compared with IRRAYPDASLLNDRVLRAMLKAEE [N9S], IRRAYPDATLLNDRVLRAMLKAEE [N9T] is higher in protein stability index: 2.44 for the first, 2.63 for the second.

Going from IRRAYPDAVLLNDRVLRAMLKAEE [N9V] to IRRAYPDAYLLNDRVLRAMLKAEE [N9Y], the protein stability index falls from 2.26 to 2.11.

First: IRRAYPDANALNDRVLRAMLKAEE [L10A]
Second: IRRAYPDANDLNDRVLRAMLKAEE [L10D]
The protein stability index of the first is lower: 2.48 for the first, 3.97 for the second.

Going from IRRAYPDANFLNDRVLRAMLKAEE [L10F] to IRRAYPDANHLNDRVLRAMLKAEE [L10H], the protein stability index rises from 2.52 to 2.94.

Going from IRRAYPDANILNDRVLRAMLKAEE [L10I] to IRRAYPDANKLNDRVLRAMLKAEE [L10K], the protein stability index rises from 1.22 to 3.23.

First: IRRAYPDANNLNDRVLRAMLKAEE [L10N]
Second: IRRAYPDANPLNDRVLRAMLKAEE [L10P]
The protein stability index of the first is higher: 3.58 for the first, 2.63 for the second.

First: IRRAYPDANQLNDRVLRAMLKAEE [L10Q]
Second: IRRAYPDANRLNDRVLRAMLKAEE [L10R]
The protein stability index of the first is higher: 3.38 for the first, 3.08 for the second.

Going from IRRAYPDANSLNDRVLRAMLKAEE [L10S] to IRRAYPDANTLNDRVLRAMLKAEE [L10T], the protein stability index rises from 2.14 to 3.13.

Compared with IRRAYPDANVLNDRVLRAMLKAEE [L10V], IRRAYPDANWLNDRVLRAMLKAEE [L10W] is lower in protein stability index: 2.49 for the first, 2.02 for the second.

Going from IRRAYPDANYLNDRVLRAMLKAEE [L10Y] to IRRAYPDANLCNDRVLRAMLKAEE [L11C], the protein stability index falls from 3.34 to 2.69.

Going from IRRAYPDANLDNDRVLRAMLKAEE [L11D] to IRRAYPDANLENDRVLRAMLKAEE [L11E], the protein stability index falls from 4.19 to 3.58.

Compared with IRRAYPDANLFNDRVLRAMLKAEE [L11F], IRRAYPDANLGNDRVLRAMLKAEE [L11G] is higher in protein stability index: 1.75 for the first, 2.84 for the second.
